Experiment [1] concerns the target T1, Mouse Mfsd2a, wild type (endogenous on brain endothelial cells of wildtype mice); stably expressed in HEK293 … (mouse, UniProt Q9DA75 1-534).
T1 construct: whole, on cells; also called endogenous Mfsd2a
T1 sequence (looked up): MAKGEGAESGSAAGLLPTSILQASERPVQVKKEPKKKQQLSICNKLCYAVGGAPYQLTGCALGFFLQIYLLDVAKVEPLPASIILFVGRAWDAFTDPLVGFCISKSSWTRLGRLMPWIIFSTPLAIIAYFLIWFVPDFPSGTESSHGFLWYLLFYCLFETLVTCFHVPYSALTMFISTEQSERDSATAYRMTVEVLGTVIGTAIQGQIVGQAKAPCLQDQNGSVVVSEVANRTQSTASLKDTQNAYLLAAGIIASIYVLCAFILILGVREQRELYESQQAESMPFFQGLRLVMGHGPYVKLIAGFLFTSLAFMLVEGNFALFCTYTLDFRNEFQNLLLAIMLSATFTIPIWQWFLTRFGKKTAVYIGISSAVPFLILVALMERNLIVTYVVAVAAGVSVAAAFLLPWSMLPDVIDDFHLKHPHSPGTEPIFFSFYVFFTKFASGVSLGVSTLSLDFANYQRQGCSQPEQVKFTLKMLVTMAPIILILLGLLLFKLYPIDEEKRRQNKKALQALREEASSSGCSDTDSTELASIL
The experiment can be described thus: IV injection into adult mice (10 ug/ml), brain sections stained with fluorescent secondary antibody. As to the method: The specificity of the antibody described herein (D1, with CDRs of SEQ ID NOs: 1-6) was tested. IV-injection of D1 antibody or control antibody was IV injected at 10 ug/ml to adult mice. The antibodies were permitted to circulate for 15 minutes, followed by 10 ml PBS perfusion and fixation. Brains were sectioned and stained with fluorescent labeled secondary antibody. […] It specifically binds to the endogenous Mfsd2a that is expressed on the luminal side of the brain endothelial cell plasma membrane in the wildtype mice, absence in the Mfsd2a knockout mice. Control antibody injected animals show no staining.

Experiment [2] has as its target T2, Mus musculus Mfsd2a with a single point mutation (Q67H), purified in LMNG/CHS/GDN detergent (Mus musculus, UniProt Q9DA75 1-534, limits assumed).
T2 construct: Membrane transporter expressed in HEK293S cells and purified in detergent; also called mouse Mfsd2a Q67H
T2 sequence (looked up): T1 sequence (looked up) with Q67H
The experiment can be described thus: cryo-EM of the complex, scFv as fiducial mark. The source says:
Mouse Mfsd2a was over-expressed in HEK293 cells and purified for structural studies. A fortuitous loss-of-function single point mutation Q67H (FIG. 6D) was identified that presumably arrests the transporter in an outward-facing conformation based on its location near the typical extracellular gate area in MFS transporters. It was theorized that this might reduce conformational heterogeneity and selected this variant for structural studies. The purified protein was biochemically stable and appeared monodisperse on size exclusion chromatography (FIG. 6A). To obtain the most homogenous samples for cryo-EM studies, the proteins were screened after being purified under various conditions. Mfsd2a purified in lauryl maltose neopentyl glycol/cholesteryl hemisuccinate/glycol-diosgenin (LMNG/CHS/GDN) detergent mixture was selected for further structural studies as particles appeared to be homogeneous in size and shape. Since Mfsd2a is small in size (59 kDa) with few features outside the micelle, it presents challenges for cryo-EM studies. To aid the particle alignment, we used a single-chain variable fragment (scFv) of antibody that binds to the extracellular side of Mfsd2a as a fiducial mark. This strategy permitted determination of the cryo-EM structure of Mfsd2a at 3.5 Å resolution (FIG. 1B; FIGS. 7A-7F).

Where a chain is given by its changes, count along the chain named.

The source of these data is patent publication US20240117033A1 (Harvard, published 2024).

B1: D1 antibody (with CDRs of SEQ ID NOs: 1-6) (antibody, V domains shown)
VH: AVTLDESGGGLQTPKGGLSLVCKASGFTFSSYDMAWVRQAPGKGLEWVAGITSTGSYTNYGAAVKGRATISRDNGQSTVRLQLNSLRAEDTATYFCAKSSFGCPYSCWYDIAGSIDAWGHGTEVIVSS
VL: ALTQPSSVSANPGETVKITCSGARYGYGWYQQKSPGSALVTLIYANNIRPSAIPSRFSGSKSGSTATLTITGVRAEDEAVYYCGNEDSITYAAFGAGTTLTVL
On to B1, for which the binding result in experiment [1] is “binds”.

B2: Anti-Mfsd2a scFv (ScFv of SEQ ID NO: 7) (scFv)
scFv: QPSSVSANPGETVKITCSGARYGYGWYQQKSPGSALVTLIYANNIRPSAIPSRFSGSKSGSTATLTITGVRAEDEAVYYCGNEDSITYAAFGAGTTLTVLGGSSRSSGGGGSSGGGGSAVTLDESGGGLQTPKGGLSLVCKASGFTFSSYDMAWVRQAPGKGLEWVAGITSTGSYTNYGAAVKGRATISRDNGQSTVRLQLNSLRAEDTATYFCAKSSFGCPYSCWYDIAGSIDAWGHGTEVIVS
notes: Isolated by phage display from chickens immunized with lipoparticles containing mouse Mfsd2a; Expressed as an scFv-Fc fusion with a human Fc; the scFv fragment was released by papain cleavage and purified by ion exchange; also called single-chain variable fragment
For the molecule B2, the binding result in experiment [2] is given as “binds”.
